Molecular target: LRP6 of Super TopFlash (STF, HEK293) cells (UniProt O75581)
Assay: cell-based or functional assay

Chain of LRP6 of Super TopFlash (STF, HEK293) cells (O75581 20-1613 limits assumed): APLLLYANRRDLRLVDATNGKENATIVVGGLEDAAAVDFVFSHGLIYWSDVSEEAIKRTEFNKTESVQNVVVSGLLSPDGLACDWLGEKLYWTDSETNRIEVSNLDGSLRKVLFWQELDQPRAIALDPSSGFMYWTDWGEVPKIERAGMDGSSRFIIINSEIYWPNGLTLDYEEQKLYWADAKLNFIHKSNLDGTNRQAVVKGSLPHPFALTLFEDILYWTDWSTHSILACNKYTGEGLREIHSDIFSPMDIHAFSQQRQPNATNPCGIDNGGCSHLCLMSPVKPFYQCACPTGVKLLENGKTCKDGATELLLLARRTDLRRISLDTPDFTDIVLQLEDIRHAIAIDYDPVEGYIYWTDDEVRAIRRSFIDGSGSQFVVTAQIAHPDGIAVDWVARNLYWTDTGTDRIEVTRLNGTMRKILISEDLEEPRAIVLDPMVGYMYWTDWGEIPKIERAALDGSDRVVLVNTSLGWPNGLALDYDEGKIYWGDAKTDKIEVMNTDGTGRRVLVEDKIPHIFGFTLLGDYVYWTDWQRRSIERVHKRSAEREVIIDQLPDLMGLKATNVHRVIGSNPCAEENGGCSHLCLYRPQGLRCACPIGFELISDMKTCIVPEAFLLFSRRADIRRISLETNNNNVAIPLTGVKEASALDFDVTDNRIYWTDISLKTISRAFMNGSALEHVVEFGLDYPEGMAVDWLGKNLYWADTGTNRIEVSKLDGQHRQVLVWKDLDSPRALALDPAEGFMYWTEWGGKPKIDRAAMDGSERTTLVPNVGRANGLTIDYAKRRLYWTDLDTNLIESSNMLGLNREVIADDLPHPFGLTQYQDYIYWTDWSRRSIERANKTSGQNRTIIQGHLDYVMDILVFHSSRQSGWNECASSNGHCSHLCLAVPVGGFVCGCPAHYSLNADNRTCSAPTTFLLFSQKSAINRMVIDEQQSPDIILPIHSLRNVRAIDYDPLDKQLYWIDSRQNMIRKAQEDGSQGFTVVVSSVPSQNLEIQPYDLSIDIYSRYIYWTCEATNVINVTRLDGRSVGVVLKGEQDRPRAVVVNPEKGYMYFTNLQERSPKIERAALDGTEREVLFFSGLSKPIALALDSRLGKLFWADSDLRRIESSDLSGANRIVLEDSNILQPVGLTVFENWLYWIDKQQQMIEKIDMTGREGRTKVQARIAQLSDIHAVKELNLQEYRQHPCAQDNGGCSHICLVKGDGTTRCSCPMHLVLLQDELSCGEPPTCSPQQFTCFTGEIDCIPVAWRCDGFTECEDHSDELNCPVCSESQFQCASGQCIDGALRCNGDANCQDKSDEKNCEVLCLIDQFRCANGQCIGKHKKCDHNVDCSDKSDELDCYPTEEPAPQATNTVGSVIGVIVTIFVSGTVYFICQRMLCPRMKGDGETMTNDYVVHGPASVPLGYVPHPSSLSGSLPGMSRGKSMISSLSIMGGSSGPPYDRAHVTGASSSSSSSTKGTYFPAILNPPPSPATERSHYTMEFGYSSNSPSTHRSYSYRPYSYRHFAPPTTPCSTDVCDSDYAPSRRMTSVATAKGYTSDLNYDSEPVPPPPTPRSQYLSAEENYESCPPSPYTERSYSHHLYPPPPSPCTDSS

activity in the Super Top Flash assay against the HSA-DKK2 C2 proteins: 10 fold
Substance: ACE 448 HSA-DKK2 full length (C1+C2) (from UniProt P02768 25-609; Q9UBU2 34-259) (ligand)
